Molecular target: human MIP-1α (human) (UniProt P10147)
Assay: 125I-MIP-1α bound to human monocytic cells, Exp. 1, 200X molar excess M-T1

Sequence of UniProt P10147 (P10147 24-92 limits assumed): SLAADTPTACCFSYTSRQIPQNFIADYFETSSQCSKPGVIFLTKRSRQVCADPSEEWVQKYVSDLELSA

Substance: myxoma T1 protein (type-2 CBP)
- Surface Bound MIP-1α: 978 cpm
